Results from US20240002514A1 (IGM BIOSCIENCES, published 2024).
Positions count from the first letter of the chain named. Values belong to the binder of their own block, whether it stands above or below them.

Tests used:
[1] = biological target: T1, human PD-L1 expressed on the cell surface (CHO cells expressing human PD-L1; Promega CS187103 / 187103 cells) (human, UniProt Q9NZQ7 19-290); assay: cell-based or functional assay
[2] = biological target: T1, human PD-L1 expressed on the cell …; assay: cell-based or functional assay; remark: listed apart in the source
[3] = biological target: T1, human PD-L1 expressed on the cell …; assay: cell-based or functional assay; remark: listed apart in the source
[4] = biological target: T2, recombinant mouse PD-L1 Fc chimera (Sino Biologicals, cat #50010-M02H) (mouse, UniProt Q9EP73 19-238); assay: ELISA on directly coated mouse PD-L1 Fc chimera (1 ug/mL), detection anti-human kappa light chain-HRP
T2 construct: Fc part of the bought chimera not given
Method: (§1) Recombinant human PD-L1 Fc chimera (Sino Biological, cat #10084-H02H), recombinant cynomolgous monkey PD-L1 Fc chimera (Sino Biological, cat #90251-C02H), recombinant mouse PD-L1 Fc chimera (Sino Biologicals, cat #50010-M02H) and recombinant human PD-L2 Fc chimera protein (Sino Biological, cat #10292-H02H) were coated directly onto the ELISA plates at 1 ug/mL by overnight incubation at 4° C. The plates were washed 3× with PBS 0.05% TWEEN® and dried by tapping several times on paper towels. All the plates were blocked with 200 uL of 1% milk for 1 hr at RT. […] Fifty μL of the diluted antibodies were added to the respective wells in all the plates. Positive control antibody (mouse anti-human PD-L1, 29E.2A3, (BioLegend, cat #329702) and its isotype control mouse IgG2b k (BioLegend, cat #400302) were serially diluted 3-fold in 1% milk starting at 3 ug/mL to 0.1 ng/mL and 50 uL of the titrated antibodies were added to their respective plates/wells. Similarly rat anti mouse PD-L1 (BioLegend, cat #124302) and rat IgG2b isotype (BioLegend, cat #400622), anti-human PD-L2 (BioLegend, cat #345502) with mouse IgG1 isotype (BioLegend, cat #4011402) were titrated as above and added to its respective plates/wells. The plates were incubated for 1 hr at RT. […] For the control wells, appropriate secondary antibodies, goat anti mouse HRP (Southern Biotech, cat #1033) and mouse anti rat HRP (Southern Biotech, cat #3070-05), were diluted and incubated as above. After repeating the wash and drying step, the plates were developed for 20-30 min with 50 uL TMB substrate (BD OPTEIA®, cat #555214). The reaction was stopped with 50 uL of 2N H2SO4 and absorbance at 450 nm was read on a SPECTRAMAX® Gemini™ spectrophotometer.

[5] = biological target: T3, recombinant human PD-L2 Fc chimera protein (Sino Biological, cat #10292-H02H) (human, UniProt Q9BQ51 20-219); assay: ELISA on directly coated human PD-L2 Fc chimera (1 ug/mL), detection anti-human kappa light chain-HRP
T3 construct: Fc part of the bought chimera not given
T3 sequence (looked up): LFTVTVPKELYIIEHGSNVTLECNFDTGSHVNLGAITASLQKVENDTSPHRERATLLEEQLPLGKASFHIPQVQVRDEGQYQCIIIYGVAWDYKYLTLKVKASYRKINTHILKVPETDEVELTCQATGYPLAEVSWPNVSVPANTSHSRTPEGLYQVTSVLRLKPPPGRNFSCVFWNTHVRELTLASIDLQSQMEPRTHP
Method: as §1

[6] = biological target: T4, recombinant cynomolgus monkey PD-L1 Fc chimera (Sino Biological, cat #90251-C02H) (cynomolgus monkey, UniProt G7PSE7 19-239); assay: ELISA on directly coated cynomolgus PD-L1 Fc chimera (1 ug/mL), detection anti-human kappa light chain-HRP
T4 construct: also called Cyno PD-L1; Fc part of the bought chimera not given
Method: as §1

[7] = biological target: T1, human PD-L1 expressed on the cell …; assay: flow cytometry competition on CHO cells expressing human PD-L1; cells pre-incubated with unlabeled antibody, then Alexa Fluor 647-labeled S70 (1 µg/mL)
Method: (§2) Antibody cross-blocking analysis was conducted by the following method. […] Fluorescent staining intensities were determined using the FACSCalibur™ system. Competition of by the identical antibody was a positive control while the lack of competition by the irrelevant antibody was a negative control.

[8] = biological target: T1, human PD-L1 expressed on the cell …; assay: flow cytometry competition on CHO cells expressing human PD-L1; cells pre-incubated with unlabeled antibody, then Alexa Fluor 647-labeled 3C5 (1 µg/mL)
Method: as §2

T2 sequence (Q9EP73 19-238, stated change not applied): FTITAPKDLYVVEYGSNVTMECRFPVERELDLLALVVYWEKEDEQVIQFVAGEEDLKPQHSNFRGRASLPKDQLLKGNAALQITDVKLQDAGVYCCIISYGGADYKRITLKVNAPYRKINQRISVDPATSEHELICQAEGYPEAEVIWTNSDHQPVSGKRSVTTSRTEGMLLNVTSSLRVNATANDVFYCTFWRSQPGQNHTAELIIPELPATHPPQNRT
T1 sequence (Q9NZQ7 19-290): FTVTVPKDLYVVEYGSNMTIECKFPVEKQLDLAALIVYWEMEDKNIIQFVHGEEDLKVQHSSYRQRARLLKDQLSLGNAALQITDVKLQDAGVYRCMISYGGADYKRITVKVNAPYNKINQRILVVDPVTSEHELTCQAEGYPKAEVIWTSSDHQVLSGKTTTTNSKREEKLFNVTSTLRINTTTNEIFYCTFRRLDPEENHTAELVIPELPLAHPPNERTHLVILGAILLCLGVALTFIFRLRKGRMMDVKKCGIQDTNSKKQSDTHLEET
T4 sequence (G7PSE7 entry or part of it C02H C02H): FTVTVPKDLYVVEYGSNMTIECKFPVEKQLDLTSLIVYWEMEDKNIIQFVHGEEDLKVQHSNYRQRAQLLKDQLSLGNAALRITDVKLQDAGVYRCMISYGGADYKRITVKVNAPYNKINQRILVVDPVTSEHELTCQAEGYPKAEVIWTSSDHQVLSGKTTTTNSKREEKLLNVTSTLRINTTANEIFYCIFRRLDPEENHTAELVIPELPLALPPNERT

B1: 3C5-2G12 IgM antibody (antibody)
heavy: QVQLKESGPGLVAPSQSLSITCTVSGFSLTSYDISWVRQPPGKGLEWLGVIWTGVGTNYNSAFMSRLSISKDNSKSQVFLKMNSLQTDDTAMYYCVRDPYYYGMDYWGQGTSVTVSSGSASAPTLFPLVSCENSPSDTSSVAVGCLAQDFLPDSITFSWKYKNNSDISSTRGFPSVLRGGKYAATSQVLLPSKDVMQGTDEHVVCKVQHPNGNKEKNVPLPVIAELPPKVSVFVPPRDGFFGNPRKSKLICQATGFSPRQIQVSWLREGKQVGSGVTTDQVQAEAKESGPTTYKVTSTLTIKESDWLSQSMFTCRVDHRGLTFQQNASSMCVPDQDTAIRVFAIPPSFASIFLTKSTKLTCLVTDLTTYDSVTISWTRQNGEAVKTHTNISESHPNATFSAVGEASICEDDWNSGERFTCTVTHTDLPSPLKQTISRPKGVALHRPDVYLLPPAREQLNLRESATITCLVTGFSPADVFVQWMQRGQPLSPEKYVTSAPMPEPQAPGRYFAHSILTVSEEEWNTGETYTCVVAHEALPNRVTERTVDKSTGKPTLYNVSLVMSDTAGTCY
light: DIQMNQSPSSLSASLGDTITITCRASQDISIWLSWYQQKPGNIPELLIYKASNLHTGVPPRFSGSGSGTDFTLTISSLQPEDIATYYCLQSQSFPRTFGGGTKLEIKRTVAAPSVFIFPPSDEQLKSGTASVVCLLNNFYPREAKVQWKVDNALQSGNSQESVTEQDSKDSTYSLSSTLTLSKADYEKHKVYACEVTHQGLSSPVTKSFNRGEC
EC50 in the PD-1/PD-L1 blockade assay (luciferase reporter activity, 4 parameter curve fit) [1]: 61000 nM | EC50, PD-1/PD-L1 blockade (% PDL1 Blockade, NFAT-luciferase reporter) [2]: 0.061 nM | EC50, PD-1/PD-L1 blockade (PDL1 Blockade, luciferase signal) [3]: 0.094 nM | binding result [4]: no binding (tested: 3 ug/mL) | binding result [5]: no binding (tested: 3 ug/mL) | EC50 (read off the curve) [6]: ~7 ng/mL

B2: 3C5-2G12 IgM + J antibody (antibody)
heavy: B1 heavy
light: B1 light
chain: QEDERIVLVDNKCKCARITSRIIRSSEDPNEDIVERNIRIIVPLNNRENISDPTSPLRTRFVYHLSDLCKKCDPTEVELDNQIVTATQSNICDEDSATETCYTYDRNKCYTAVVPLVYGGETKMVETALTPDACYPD
notes: also called 3C5.2G12 IgM+wtJ; 3C5.2G12 IgM+J chain
EC50 in the PD-1/PD-L1 blockade assay (luciferase reporter activity, 4 parameter curve fit) [1]: 96000 nM | EC50, PD-1/PD-L1 blockade (% PDL1 Blockade, NFAT-luciferase reporter) [2]: 0.096 nM | binding result [4]: no binding (tested: 3 ug/mL) | binding result [5]: no binding (tested: 3 ug/mL) | EC50 (read off the curve) [6]: ~8 ng/mL

B3: 3C5-2G12 IgG1 antibody (antibody)
heavy: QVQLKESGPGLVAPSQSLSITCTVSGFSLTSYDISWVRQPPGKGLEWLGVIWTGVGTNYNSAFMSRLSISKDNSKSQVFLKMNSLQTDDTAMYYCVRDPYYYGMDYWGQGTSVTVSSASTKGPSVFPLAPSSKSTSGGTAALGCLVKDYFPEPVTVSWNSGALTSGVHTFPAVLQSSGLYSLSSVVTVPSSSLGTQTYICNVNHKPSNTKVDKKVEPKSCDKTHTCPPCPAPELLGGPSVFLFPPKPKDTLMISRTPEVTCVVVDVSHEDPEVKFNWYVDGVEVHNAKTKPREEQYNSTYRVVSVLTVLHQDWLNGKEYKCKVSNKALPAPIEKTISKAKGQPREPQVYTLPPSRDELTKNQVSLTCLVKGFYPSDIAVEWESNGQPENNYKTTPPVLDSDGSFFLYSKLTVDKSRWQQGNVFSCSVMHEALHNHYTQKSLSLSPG
light: B1 light
notes: also called 3C5 (IgG); 3C5 antibody (IgG format)
EC50, PD-1/PD-L1 blockade (% PDL1 Blockade, NFAT-luciferase reporter) [2]: 0.21 nM | EC50, PD-1/PD-L1 blockade (PDL1 Blockade, luciferase signal) [3]: 0.251 nM | binding result [4]: no binding (tested: 3 ug/mL) | binding result [5]: no binding (tested: 3 ug/mL) | EC50 (read off the curve) [6]: ~6 ng/mL | IC50 (read off the curve) [7]: ~20 ng/mL | IC50 (read off the curve) [8]: ~10 ng/mL

B5: h3C5H1-h3C5L1 (humanized 3C5, IgG) (antibody, V domains shown)
VH: QVQLQESGPGLVKPSETLSLTCTVSGFSLTSYDISWIRQPPGKGLEWIGVIWTGVGTNYNPSLKSRVTISVDTSKNQFSLKLSSVTAADTAVYYCARDPYYYGMDYWGQGTLVTVSS
VL: DIQMTQSPSSLSASVGDRVTITCRASQDISIWLSWYQQKPGKAPKLLIYKASNLHTGVPSRFSGSGSGTDFTLTISSLQPEDFATYYCLQSQSFPRTFGQGTKLEIKR
EC50, PD-1/PD-L1 blockade (PDL1 Blockade, luciferase signal) [3]: 0.221 nM

Continued, values first:

EC50, PD-1/PD-L1 blockade (PDL1 Blockade, luciferase signal) [3]: 0.214 nM
B4: h3C5H3-h3C5L2 (humanized 3C5, IgG) (antibody, V domains shown)
VH: B5 VH with L20I, I37V, I48L, L63F, V67L, V71K, F78V, L82M, V85L, A96V
VL: B5 VL with V19I

EC50, PD-1/PD-L1 blockade (PDL1 Blockade, luciferase signal) [3]: 0.296 nM
B6: h3C5H4-h3C5L2 (humanized 3C5, IgG) (antibody, V domains shown)
VH: B5 VH with L20I, I48L, L63F, V67L, V71K, T73N, F78V, L82M, V85L, A96V
VL: B5 VL with V19I

EC50, PD-1/PD-L1 blockade (PDL1 Blockade, luciferase signal) [3]: 0.381 nM
B7: h3C5H2-h3C5L2 (humanized 3C5, IgG) (antibody, V domains shown)
VH: B5 VH with I48L, V71K
VL: B5 VL with V19I
